Experiments:
phospho-Ser473 AKT = test: AKT phosphorylation in WT T cells stimulated with anti-CD3+anti-CD28 (immunoblot, Luminex); assay type: cell-based, mouse; conditions: 0.1 μM PI-103, 20 min
Description: FIG. 5 illustrates immunoblots of A) anti-phospho-Ser473 AKT (rep of 5 exps) of WT T cells incubated with anti-CD3+anti-CD28±C5aR-A+C3aR-A (10 ng/ml each). B) anti-phospho-Ser473 AKT (rep of 5 exps) of WT or C5ar1−/−C3ar1−/− T cells incubated with anti-CD3+anti-CD28.
FIG. 6 illustrates C5aR and C3aR Ligation Activates PI3-Kγ, which in turn promotes AKT Phosphorylation. […] (p<0.05). […] (B) WT T cells were incubated at 37° C. with anti-CD3+anti-CD28 (1 μg/ml each) for 3 min after which the cells were incubated for 20 min with buffer or 0.1 μM PI-3Kγ-specific inhibitor PI-103. Extracts were immunoblotted with anti-phospho-Ser^473 AKT or total AKT mAb (representative of five experiments). (C) OT-II T cells were incubated with 0.1 μM OVA323-339, WT DCs, and 0.1 μM PI-103±10 ng/ml C5a. Complement, IL-2, and IFNγ mRNAs were quantitated by qPCR. All error bars are ±SD.
To test whether abrogated CD28 costimulation in the absence or blockade of C5aR+C3aR relates to a requirement for these GCPR signals for optimal AKT phosphorylation, we stimulated WT T cells with anti-CD3+anti-CD28±C5aR-A and C3aR-A and assessed AKT phosphorylation by immunoblotting (FIG. 5A) and Luminex assay (FIG. 6A).
Cells were stimulated for 1 hr with 1 μg/ml anti-CD3 and/or anti-CD28 (BD Biosciences) in serum-free RPMI 1640 for qPCR analyses and for 72 hr for IFNγ ELISPOT assays. […]

EGF receptor (EGFR) = test: EGFR phosphorylation in the 3 tumor lines (immunoprecipitation, anti-phosphotyrosine immunoblot); assay type: cell-based, murine
Source text: (§1) Unregulated EGFR signaling has causally linked with certain cancers. Additionally, an earlier study in the literature reported that added C5a can induce EGFR phosphorylation in HeLa cells. Based on these two findings, we next asked whether EGFR phosphorylation in cancers cells is in fact dependent on C3aR/C5aR signal transduction. To do this, we cultured each of the 3 tumor lines in the presence of buffer alone, C5aR-A/C3aR-A and anti-C3a/anti-C5a mAb, or vehicle and nonrelevant mAb controls. After 2 hr, we added increasing amounts of EGF, 2 min after which we extracted the cells with NP-40 lysis buffer. We then immuoprecipitated EGFR from lysates with specific antibody and probed immunoblots of the precipitates with anti-phosphtyrosine mAb. […] To determine this C3aR/C5aR dependent step is an intermediary for EGFR phosphorylation, we repeated the above study this time using PI-103, a specific inhibitor of this enzyme. […] In a converse study, we incubated each of the 3 tumor lines without and with added C5a and measured cell growth.

[1] = test system: Complement, IL-2, and IFNγ mRNAs; test: qPCR of complement, IL-2 and IFNγ mRNAs in T cells with PI-103; assay type: cell-based, mouse
Description: To test whether this signaling pathway is operational in T cells, we incubated WT T cells with anti-CD3+anti-CD28 plus a specific inhibitor (PI-103) of PI-3Kγ.
We synthesized cDNAs by incubating 20 μl of mRNAs in Sprint PowerScript Single Shots (Clontech, Mountain View, Calif.). A total of 10 μl of diluted cDNA were mixed with 2 μl of primer and 10 μl SYBR green master mix (Applied Biosystems, Foster City, Calif.) and assayed in triplicate on an ABI prism 7000 cycler. In all assays, fold increases are relative to each basal level and standardized to Actin.

T cells = test: In vitro T cell viability in serum-free HL-1 medium; assay type: cell-based, mouse; conditions: 300 ng/ml C5a added at time 0 and 90 min, both knockouts
Description: FIG. 7 illustrates constitutive C5a and C3a Production and Signaling via the C5aR and C3aR GPCRs Influences Cell Viability In Vitro and In Vivo. […] (B) WT and C5ar1^−/−, C3ar1^−/−, and C5ar1^−/− C3ar1^−/− T cells were incubated for 6 hr in serum-free HL-1 medium and viability assayed. (C) WT T cells were incubated at 37° C. for 6 hr in HL-1 medium±anti-C3a, anti-C5a, or anti-C3a+anti-C5a and viability assessed. (D) C3^−/− and C5-deficient T cells were incubated for 6 hr in HL-1 medium±300 ng/ml C5a added at time 0 and 90 min (E) Spleens from naive WT, C3ar1^−/−, C5ar1^−/−, and C3ar1^−/− C5ar1^−/− mice were isolated (three to five animals per group), total cell numbers were counted, and the CD3^+ fraction was determined by flow cytometry (WT=10%, C5ar1^−/−=5.4%, C3ar1^−/−=6.3, and C5ar1^−/− C3ar1^−/−=4.1%). (F) Immediately after isolation and labeling, 10^6 CFSE-labeled WT T cells and CellTracker Red CMTPX-labeled C5ar1^−/− C3ar1^−/− T cells were adoptively cotransferred into the same SCID mice (n=4 mice per group for each time point). […]
To test this possibility, we compared the survival of WT and C5ar1^−/− C3ar1^−/− T cells in vitro […]. […] Fewer surviving C5ar1^−/− C3ar1^−/− T cells were detected at 6 hr, confirming that disrupted autocrine signaling through both the C5aR and C3aR contributed to the decline (FIG. 7B). […]

3 tumor lines = test: Cell growth of the 3 tumor lines without and with added C5a; assay type: cell-based, murine; conditions: all 3 tumor lines
Source text: as §1

PI-3Kγ = PI-3Kγ enzyme activity in immunoprecipitates of tumor lines with added C5a; assay type: cell-based, murine; conditions: PI-3Kγ immunoprecipitates
Source text: as §1

E0771 (breast cancer) = test: Cell growth after mouse C5a treatment in Opti-MEM; assay type: cell-based, murine; conditions: 500 nM C5a, 72 hr culture
Description: (§2) FIG. 2 illustrates graphs showing cell growth in 3 cancer cell lines (a) MCA 205 (fibrosarcoma), (b) B16 (melanoma cell), and (c) E0771 (breast cancer) after mouse C5a treatment in Opti-MEM media (serum-reduced media).
(§3) (a) MCA 205, (b) B16/F10 and (c) E0771. Data are representative of two experiments with duplicates. MCA 205 and E0771 were treated with 500 nM C5a and B16/F10 was treated with 100 nM C5a respectively.
(§4) Three kinds of cancer cell lines (B 16/F10, MCA 205 and E0771) were used for this experiment. Each cell line was cultured in 12-well plates (3×10^4/well) in serum reduced Opti-MEM media (Invitrogen) containing L-glutamine and penicillin+streptomycin for the indicated times (24 hr, 48 hr and 72 hr). C5a (Cell Sciences) in PBS was added in each well at 0, 24 and 48 hr time point to a final concentration 100 nM for B16/F10 and 500 nM for MCA205 and E0771 based on the preliminary experiment. At each time point (24 hr, 48 hr and 72 hr), live cells were trypsinized and counted using trypan blue (Invitrogen, Carlsbad, Calif.). Experiment was repeated two times with duplicates.

MCA 205 (fibrosarcoma) = test: Cell growth after mouse C5a treatment in Opti-MEM; assay type: cell-based, murine; conditions: 500 nM C5a, 72 hr culture
Description: as §2, §3, §4

B16/F10 (melanoma cell) = test: Cell growth after mouse C5a treatment in Opti-MEM; assay type: cell-based, murine; conditions: 100 nM C5a, 72 hr culture
Description: as §2, §3, §4

| Molecule | anti-CD3+anti-CD28-induced phosphorylation of AKT (phospho-Ser473 AKT) | EGF induced EGFR phosphorylation (EGF receptor (EGFR); 3 tumor lines, 2 hr pre-treatment, increasing amounts of EGF for 2 min) | upregulation of IL-2 and IFNγ mRNA expression ([1]; 0.1 μM PI-103) | upregulation of complement gene expression ([1]; 0.1 μM PI-103) | augmentation of 6 hr viability of C5-deficient or C3−/− T cells (T cells) [%] | tumor cell numbers (3 tumor lines) | PI-3Kγ enzyme activity (PI-3Kγ) | EGFR phosphorylation (EGF receptor (EGFR); anti-EGFR immunoprecipitates, added C5a) | overcoming of the suppressive effects of PI-103 by added C5a ([1]; 0.1 μM PI-103 + 10 ng/ml C5a) | cell survival in comparison with control (E0771 (breast cancer)) | cell survival in comparison with control (MCA 205 (fibrosarcoma)) | cell survival in comparison with control (B16/F10 (melanoma cell)) |
| --- | --- | --- | --- | --- | --- | --- | --- | --- | --- | --- | --- | --- |
| Oc1cccc(-c2nc(N3CCOCC3)c3oc4ncccc4c3n2)c1 [PI-103] | abrogated | inhibited EGFR phosphorylation in an identical fashion | eliminated | prevented | – | – | – | – | – | – | – | – |
| C5a: Murine C5a complement anaphylatoxin from Cell Sciences (protein) NLHLLRQKIEEQAAKYKHSVPKKCCYDGARVNFYETCEERVARVTIGPLCIRAFNECCTIANKIRKESPHKPVQLGR | – | – | – | – | ~25 | increased tumor cell numbers | augmented PI-3Kγ enzyme activity | augmented EGFR phosphorylation | could not be overcome | enhances cell survival | enhances cell survival | enhances cell survival |

From patent publication US8940299B2, “Method of treating cancer” (Case Western Reserve University, priority 2008, dated 2015)
